# Test results reported in paper PMC9867944 (Bioscience Reports, 2023).
# What was measured:
# [1] = biological target: T1, human PD-1 protein (Acro biosystems) (Homo sapiens (Human)., UniProt Q15116); test: ELISA; Phage-ELISA; wells coated with human PD-1 protein; supernatant of the colonies added for 1 h; anti-M13/HRP (1:5000); positive if absorbance more than two times the negative control (PBS); conditions: one partner purified
# T1 construct: programmed death protein 1 (PD-1), human, recombinant protein; probably the extracellular domain; also called human PD-1 antigen; hPD-1; source: bought: Acro biosystems
# T1 sequence (Q15116 25-170): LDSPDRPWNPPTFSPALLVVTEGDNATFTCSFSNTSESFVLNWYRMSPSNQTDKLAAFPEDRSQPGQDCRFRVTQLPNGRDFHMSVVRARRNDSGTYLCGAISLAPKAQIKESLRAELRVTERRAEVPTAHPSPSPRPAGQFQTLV
# [2] = biological target: T2, anti-PD-1 Nb C12-Fc (Bactrian camel); test: ELISA; plates coated with human PD-1 or mouse PD-1 protein at 2 ug/ml overnight; serial diluted anti-PD-1 Nb-Fc added, 37 C, 1 h; HRP-conjugated antihuman IgG; conditions: both partners purified
# T2 construct: VHH C12 selected from a naive Bactrian camel phage display library; Nb C12 fused to the human IgG1 Fc fragment in plasmid pCZN1; about 40 kDa on SDS-PAGE; also called anti-PD-1 Nb-Fc; PD-1 C12 Nb-Fc
Binder,binding result [1],binding result [2]
"anti-PD-1 Nb C11, displayed on phage (VHH, VHH C11 selected from a naive Bactrian camel phage display library; Detected with anti-M13/HRP; C11 was never made as an Fc fusion (ligation to pCZN1 failed); also called C11 Nb; source: E. coli TG1, phage in the supernatant of the colonies) VHH: QVQLQESGGAWCEPGGSLTLPCAVSGFAVDRDAVSWVRKAPGQGLQWVSTTTPDGTNYYGALAKDRFTVTRDTTRNTLQLQLTKLRIEDTAKYHCVQDYCSTGRCSLRTQGTQVTVSS",binds,
"anti-PD-1 Nb C12, displayed on phage (VHH, VHH C12 selected from a naive Bactrian camel phage display library; same VHH as in m1; Detected with anti-M13/HRP; also called C12 Nb; source: E. coli TG1, phage in the supernatant of the colonies) VHH: QVQLQELGETRCRHGGSLRLSCKVSGYTQRSYCLGWLRQAPGNEREAVAVLQHSGNFRHYADSVQGRFVISQDYTDNTVYLAMNNLKSEDAAMYYCAAVGLRVSQFNYWGQGTQVTVSS",binds,
"mouse PD-1 protein (receptor, UniProt Q02242 25-288, looked up, programmed death protein 1 (PD-1), mouse, protein coated on plates; also called mouse PD-1 antigen) LEVPNGPWRSLTFYPAWLTVSEGANATFTCSLSNWSEDLMLNWNRLSPSNQTEKQAAFCNGLSQPVQDARFQIIQLPNRHDFHMNILDTRRNDSGIYLCGAISLHPKAKIEESPGAELVVTERILETSTRYPSPSPKPEGRFQGM",,no binding
